These results are taken from patent publication US20250011363A1, “OPTIMIZED SHORTENED PEPTIDE THAT BINDS TO ACETYLCHOLINE RECEPTOR, AND USE THEREOF” (SKINMED CO., LTD., priority 2021, published 2025).

This assay deals with acetylcholine receptor. In words: SPR, AchR immobilised on CM5 chip, peptide at 10 uM. (In general: In SPR one partner is held on a chip, and binding of the other changes the refractive index at the surface.)

In the case of KIWWR [5mer-1172], the Binding affinity (RU) came out at 25 RU.
Molecule RIKIK [5mer-893] yielded a Binding affinity (RU) of 18 RU.
The molecule RDSMK [5mer-1184] had a Binding affinity (RU) of 14 RU.
KMSPR [5mer-894] displayed a Binding affinity (RU) of 18 RU.
Take KKAKR [5mer-1181]: the Binding affinity (RU) stood at 22 RU.
The same measure for KHWFK [5mer-1193]: 22 RU; for RMNVR [5mer-1179]: 18 RU; for KECKR [5mer-1173]: 30 RU.
As for KPSGK [5mer-1188], the Binding affinity (RU) was determined as 30 RU.
On to KPTGR [5mer-1185], for which the Binding affinity (RU) was 30 RU.
As to RFDNR [5mer-1178], the Binding affinity (RU) worked out at 22 RU.
The molecule KTPGR [5mer-889] showed a Binding affinity (RU) of 25 RU.
For RKKWK [5mer-872], the Binding affinity (RU) turned out to be 29 RU.
In the case of RMDWK [5mer-1191], the Binding affinity (RU) came to 30 RU.
In turn, KMSAK [5mer-883] came in with a Binding affinity (RU) of 16 RU.
On to KIHFK [5mer-1176], for which the Binding affinity (RU) was 25 RU.
Turning to RKMDK [5mer-1189], the Binding affinity (RU) is 11 RU.
The same measure for KTPVR [5mer-887]: 30 RU; for RFTKK [5mer-895]: 18 RU; for RYAKK [5mer-1192]: 28 RU.
In the case of RYNFR [5mer-873] it was 32 RU; in that of RFSMR [5mer-877], 17 RU; in that of KETAK [5mer-1180], 27 RU.
As to RDMIR [5mer-1175], the Binding affinity (RU) worked out at 30 RU.
As for KKHFK [5mer-890], the Binding affinity (RU) turned out to be 33 RU.
Molecule KHCNK [5mer-875] yielded a Binding affinity (RU) of 33 RU.
The same measure for RFSEK [5mer-1190]: 32 RU.
The same measure for RNDAK [5mer-881]: 31 RU.
In the case of KHTER [5mer-878], the Binding affinity (RU) came out at 24 RU.
Consider KDCMK [5mer-879], for which the Binding affinity (RU) amounted to 13 RU.
KDDAR [5mer-1197] had a Binding affinity (RU) of 24 RU.
RKPMR [5mer-892] gave a Binding affinity (RU) of 29 RU.
In turn, RHWEK [5mer-1195] registered a Binding affinity (RU) of 19 RU.
As for RICIR [5mer-1196], the Binding affinity (RU) came out at 24 RU.
In the case of KIWEK [5mer-884] it was 28 RU; in that of KIPVR [5mer-1177], 20 RU; in that of RHCNR [5mer-885], 19 RU.
Molecule KMWVK [5mer-1186] displayed a Binding affinity (RU) of 12 RU.
In the case of KFCER [5mer-897] it was 30 RU; in that of RMMFR [5mer-886], 21 RU; in that of RHAPK [5mer-1183], 13 RU.
As to RYHWR [5mer-896], the Binding affinity (RU) came to 27 RU.
Molecule RIHMR [5mer-874] yielded a Binding affinity (RU) of 27 RU.
Regarding KKCIR [5mer-888], the Binding affinity (RU) is 31 RU.
The molecule REEGR [5mer-882] showed a Binding affinity (RU) of 18 RU.
KHHIR [5mer-1187] yielded a Binding affinity (RU) of 27 RU.
In the case of KETAR [5mer-876] it was 16 RU; in that of KYSGK [5mer-1174], 25 RU.
In the case of RCDKK [5mer-880], the Binding affinity (RU) worked out at 17 RU.
In the case of REKWK [5mer-1182], the Binding affinity (RU) was 15 RU.
The same measure for RDNGK [5mer-1194]: 18 RU; for RKKMK [5mer-891]: 24 RU.
